Results as given in patent US20040116336A1, “Peptide derivatives” (priority 2002, published 2004).
Starred links: 1 amine or outer side, 2 acyl side, 3 side chain; linkers in the order of their positions; H or OH if unused. Non-standard residues stand in square brackets, D forms with d. No end group written: not given here. *: point of attachment. Phe(4-Cl) = N[C@@H](Cc1ccc(Cl)cc1)C(=O)O; Adipoyl = O=C(CCCCC(=O)[*:2])[*:1]; Cha = N[C@@H](CC1CCCCC1)C(=O)O; pGlu = O=C1CC[C@@H](C(=O)O)N1; Morpholide = C1CN(*)CCO1; Nle = CCCC[C@H](N)C(=O)O; Dap = NC[C@H](N)C(=O)O; Hexanoyl = CCCCCC(=O)*

B1: Arg-Pro-Arg-Leu-Phe-His-Lys-Gly-Pro-Cha-Pro-Phe(Cl) (peptide)
chain: RPRLFHKGP[Cha]PX
modifications: not fully specified (residue 12); printed as Arg-Pro-Arg-Leu-Phe-His-Lys-Gly-Pro-Cha-Pro-Phe(Cl)
B2: Arg-Pro-Arg-Ala-Ser-His-Lys-Gly-Pro-Cha-Pro-Phe(Cl) (peptide)
chain: RPRASHKGP[Cha]PX
modifications: not fully specified (residue 12); printed as Arg-Pro-Arg-Ala-Ser-His-Lys-Gly-Pro-Cha-Pro-Phe(Cl)
B3: Arg-Pro-Arg-Leu-Ser-Ala-Arg-Gly-Pro-Cha-Phe(Cl) (peptide)
chain: RPRLSARGP[Cha]X
modifications: not fully specified (residue 11); printed as Arg-Pro-Arg-Leu-Ser-Ala-Arg-Gly-Pro-Cha-Phe(Cl)
B4: pGlu-Arg-Pro-Arg-Leu-Ser-His-Lys-Gly-Pro-Cha-Pro-Phe (peptide)
chain: XRPRLSHKGPXPF
modifications: N-terminal pGlu; Cha non-natural residue; peptide derivative; Xaa on the 1st position means pGlu.; Xaa on the 11th position means Cha.
B5: pGlu-Arg-Pro-Arg-Leu-Ser-His-Lys-Gly-Pro-Met-Cha (peptide)
chain: XRPRLSHKGPMX
modifications: N-terminal pGlu; C-terminal Cha; peptide derivative; Xaa on the 1st position means pGlu; Xaa on the 12th position means Cha
B6: Arg-Pro-Arg-Leu-Phe-Ala-Arg-Gly-Pro-Cha-Pro-Phe(Cl) (peptide)
chain: RPRLFARGP[Cha]PX
modifications: not fully specified (residue 12); printed as Arg-Pro-Arg-Leu-Phe-Ala-Arg-Gly-Pro-Cha-Pro-Phe(Cl)
B7: pGlu-Arg-Pro-Arg-Leu-Ser-His-Lys-Gly-Pro-Met-Nal(2) (peptide)
chain: XRPRLSHKGPMX
modifications: N-terminal pGlu; C-terminal Nal(2); peptide derivative; Xaa on the 1st position means pGlu; Xaa on the 12th position means Nal(2)
B8: Arg-Arg-Lys(Arg-Arg)-Arg-Pro-Arg-Leu-Ser-His-Lys-Gly-Pro-Met-Pro-Phe (peptide)
chain: RRXRPRLSHKGPMPF
modifications: N-terminal branched Arg-Arg-Lys(Arg-Arg); peptide derivative; Xaa means Lys(Arg-Arg)
B9: Arg-Pro-Arg-Leu-Phe-His-Lys-Gly-Pro-Cha-Phe(Cl) (peptide)
chain: RPRLFHKGP[Cha]X
modifications: not fully specified (residue 11); printed as Arg-Pro-Arg-Leu-Phe-His-Lys-Gly-Pro-Cha-Phe(Cl)
B10: Arg-Pro-Arg-Leu-Ser-Ala-Arg-Gly-Pro-Cha-Pro-Phe(Cl) (peptide)
chain: RPRLSARGP[Cha]PX
modifications: not fully specified (residue 12); printed as Arg-Pro-Arg-Leu-Ser-Ala-Arg-Gly-Pro-Cha-Pro-Phe(Cl)
B11: Arg-Arg-Gln-Arg-Pro-Arg-Leu-Ser-His-Lys-Gly-Pro-Cha-Pro-Phe(Cl) (peptide)
chain: RRQRPRLSHKGP[Cha]PX
modifications: not fully specified (residue 15); printed as Arg-Arg-Gln-Arg-Pro-Arg-Leu-Ser-His-Lys-Gly-Pro-Cha-Pro-Phe(Cl)
B12: Arg-Pro-Arg-Leu-Ser-His-Ala-Gly-Pro-Cha-Pro-Phe(Cl) (peptide)
chain: RPRLSHAGP[Cha]PX
modifications: not fully specified (residue 12); printed as Arg-Pro-Arg-Leu-Ser-His-Ala-Gly-Pro-Cha-Pro-Phe(Cl)
B13: Arg-Pro-Ala-Leu-Ser-His-Lys-Gly-Pro-Cha-Pro-Phe(Cl) (peptide)
chain: RPALSHKGP[Cha]PX
modifications: not fully specified (residue 12); printed as Arg-Pro-Ala-Leu-Ser-His-Lys-Gly-Pro-Cha-Pro-Phe(Cl)

Columns and labels:
[1] = target: APJ (orphan G protein-coupled receptor protein); test: radioligand competition, compound of Ref. Ex. 2 as labelled ligand, CHO-A10 membrane fraction
Chain of APJ (orphan G protein-coupled receptor protein) (P35414 whole entry): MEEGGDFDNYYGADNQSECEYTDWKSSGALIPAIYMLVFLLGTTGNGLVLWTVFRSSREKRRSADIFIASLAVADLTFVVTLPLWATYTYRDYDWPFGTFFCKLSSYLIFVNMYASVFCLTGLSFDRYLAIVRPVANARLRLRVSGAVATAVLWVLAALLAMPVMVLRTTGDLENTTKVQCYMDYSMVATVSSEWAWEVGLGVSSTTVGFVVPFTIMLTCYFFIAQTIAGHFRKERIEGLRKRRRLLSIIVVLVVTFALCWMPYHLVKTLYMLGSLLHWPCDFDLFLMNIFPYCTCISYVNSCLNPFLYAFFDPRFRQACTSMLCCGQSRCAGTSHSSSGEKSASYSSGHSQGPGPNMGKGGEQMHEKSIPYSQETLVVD

[2] = target: APJ (orphan G protein-coupled receptor protein); test: cell-based or functional assay
[3] = target: APJ (orphan G protein-coupled receptor protein); test: radioligand competition, 125I-labelled compound of Ref. Ex. 1 (100 pM), CHO-A10 membrane fraction

Row | Binder | IC50 [1] [nM] | EC50, inhibition of forskolin-stimulated cAMP production (CHO-A10 clone 6 cells) [2] [nM] | IC50 [3] [nM]
1 | RPRLSHKGPMPX (C-terminal Nal(2); peptide derivative; Xaa means Nal(2)) [Arg-Pro-Arg-Leu-Ser-His-Lys-Gly-Pro-Met-Pro-Nal(2)] | 0.35 | 0.1 | 
2 | XRPRLSHLGPMPF (N-terminal pGlu; peptide derivative; Xaa means pGlu) [pGlu-Arg-Pro-Arg-Leu-Ser-His-Leu-Gly-Pro-Met-Pro-Phe] | 3.6 | 0.16 | 
3 | B1 | 0.29 | 1 | 2.7
4 | RPRLSHKGPMX (Nal(2) non-natural residue; peptide derivative; Xaa means Nal(2)) [Arg-Pro-Arg-Leu-Ser-His-Lys-Gly-Pro-Met-Nal(2)] | 0.61 | 0.37 | 
5 | RRQRPRLSHKGPX (oxidized C-terminal residue; peptide; Xaa means Met(O)) [Arg-Arg-Gln-Arg-Pro-Arg-Leu-Ser-His-Lys-Gly-Pro-Met(O)] | 0.62 | 0.48 | 
6 | B2 | 0.17 | 0.52 | 0.52
7 | XRPRLSRKGPMPF (N-terminal pGlu; peptide derivative; Xaa means pGlu) [pGlu-Arg-Pro-Arg-Leu-Ser-Arg-Lys-Gly-Pro-Met-Pro-Phe] | 0.23 | 0.081 | 
8 | B3 | 0.1 | 0.65 | 1
9 | RPRLSHKGPMX (C-terminal Cha; peptide derivative; Xaa means Cha) [Arg-Pro-Arg-Leu-Ser-His-Lys-Gly-Pro-Met-Cha] | 0.51 | 0.22 | 
10 | [pGlu]RPRLSRRGPMPF [pGlu-Arg-Pro-Arg-Leu-Ser-Arg-Arg-Gly-Pro-Met-Pro-Phe] | 0.73 | 0.069 | 
11 | RPRLFHKGP[Cha]PF [Arg-Pro-Arg-Leu-Phe-His-Lys-Gly-Pro-Cha-Pro-Phe] | 0.13 | 0.46 | 8
12 | RPRLS[Dap](Hexanoyl)RGP[Cha]P[Phe(4-Cl)] [Arg-Pro-Arg-Leu-Ser-Dap(C6)-Arg-Gly-Pro-Cha-Pro-Phe(Cl)] | 0.45 | 1.1 | 1.1
13 | [pGlu]RPRLFRRGPMPF [pGlu-Arg-Pro-Arg-Leu-Phe-Arg-Arg-Gly-Pro-Met-Pro-Phe] | 0.81 | 0.15 | 
14 | RRQRPRLSHKGP[Nle]PY [Arg-Arg-Gln-Arg-Pro-Arg-Leu-Ser-His-Lys-Gly-Pro-Nle-Pro-Tyr] | 0.027 | 0.28 | 2.7
15 | B4 | 0.16 | 0.35 | 13
16 | XRPRLFHKGPMPF (N-terminal pGlu; peptide derivative; Xaa means pGlu) [pGlu-Arg-Pro-Arg-Leu-Phe-His-Lys-Gly-Pro-Met-Pro-Phe] | 0.99 | 0.22 | 
17 | XRPRLSLKGPMPF (N-terminal pGlu; peptide derivative; Xaa means pGlu) [pGlu-Arg-Pro-Arg-Leu-Ser-Leu-Lys-Gly-Pro-Met-Pro-Phe] | 0.59 | 0.16 | 
18 | XRPRLSHRGPMPF (N-terminal pGlu; peptide derivative; Xaa means pGlu) [pGlu-Arg-Pro-Arg-Leu-Ser-His-Arg-Gly-Pro-Met-Pro-Phe] | 0.4 | 0.2 | 

Row | Binder | IC50 [1] [nM] | EC50, inhibition of forskolin-stimulated cAMP production (CHO-A10 clone 6 cells) [2] [nM] | IC50 [3] [nM]
19 | B5 | 1.3 | 0.3 | 
20 | RRQRPRLSARG-Morpholide [Arg-Arg-Gln-Arg-Pro-Arg-Leu-Ser-Ala-Arg-Gly-Mor] | 0.26 | 1.2 | 
21 | XRPRLSAKGPMPF (N-terminal pGlu; peptide derivative; Xaa means pGlu) [pGlu-Arg-Pro-Arg-Leu-Ser-Ala-Lys-Gly-Pro-Met-Pro-Phe] | 0.21 | 0.22 | 
22 | B6 | 0.38 | 1.2 | 2.3
23 | XRPRLSHFGPMPF (N-terminal pGlu; peptide derivative; Xaa means pGlu) [pGlu-Arg-Pro-Arg-Leu-Ser-His-Phe-Gly-Pro-Met-Pro-Phe] | 2.6 | 0.3 | 
24 | RRQRPRLSARG-NMe2 [Arg-Arg-Gln-Arg-Pro-Arg-Leu-Ser-Ala-Arg-Gly-NMe2] | 0.16 | 0.49 | 
25 | RRQRPRLSARGPX (C-terminal Cha; peptide derivative; Xaa means Cha.) [Arg-Arg-Gln-Arg-Pro-Arg-Leu-Ser-Ala-Arg-Gly-Pro-Cha] | 0.046 | 0.55 | 1.4
26 | B7 | 1.4 | 0.52 | 
27 | B8 | 0.84 | 0.57 | 2.9
28 | B9 | 0.54 | 0.43 | 
29 | B10 | 0.13 | 0.51 | 1.2
30 | B11 | 0.33 | 0.53 | 0.47
31 | RPRLSHKGPMPX (C-terminal Cha; peptide derivative; Xaa means Cha) [Arg-Pro-Arg-Leu-Ser-His-Lys-Gly-Pro-Met-Pro-Cha] | 3.5 | 0.71 | 
32 | B12 | 0.22 | 0.58 | 0.58
33 | RPRLS[Dap](Adipoyl)RGP[Cha]P[Phe(4-Cl)] [Arg-Pro-Arg-Leu-Ser-Dap(Adi)-Arg-Gly-Pro-Cha-Pro-Phe(Cl)] | 0.13 | 0.42 | 0.42
34 | XRPRLSFKGPMPF (N-terminal pGlu; peptide derivative; Xaa means pGlu) [pGlu-Arg-Pro-Arg-Leu-Ser-Phe-Lys-Gly-Pro-Met-Pro-Phe] | 0.95 | 0.24 | 
35 | RPRLSARGP[Cha]PF [Arg-Pro-Arg-Leu-Ser-Ala-Arg-Gly-Pro-Cha-Pro-Phe] | 0.084 | 0.59 | 2.2
36 | B13 | 0.15 | 0.41 | 0.41
